Reference: US20230094463A1, “ANTIBODIES THAT DISRUPT THE INTERACTION OF GAL3 AND INSULIN RECEPTOR OR INTEGRINS AND METHODS OF USE THEREOF” (TrueBinding, Inc., priority 2019, published 2023)
Changes are numbered by the printed parent chain. Names and notes keep the numbering of the source.

B1: 19B5.2E6: anti-Gal3 monoclonal antibody (antibody, V domains shown)
VH: QIQLVQSGPELKKPGETVKISCKASGYTFTTYAMSWVKQAPGKGLKWMGWINTYSGVPTYADDLKGRFAFSLETSASTAYLQINNLKNEDTATYFCARGPYAMDYWGQGTSVTVSS
VL: DIQMTQTTSSLSASLGDRVTISCSASQGINNYLNWYQQKPDGTVKLLIYYASSLHSGVPSRFSGSGSGTDYSLTISNLEPEDIATYYCQQYSQVPYTFGSGTKLEIK
B2: 15F10.2D6: anti-Gal3 monoclonal antibody (antibody, V domains shown)
VH: EVQLVESGGGLVKPGGSLKLSCAASGFAFSSYAMSWVRQTPEKRLEWVATISDGGVYTYYTDHVKGRFTISRDNAEDNLYLQMSHLKSEDTAMYYCVRDGGYWGQGTTLTVSS
VL: DVLMTQTPLSLPVSLGDQASISCRSSQSIVHNNGNTYLEWYLQKPGQSPKLLIYKVSNRFSGVPDRFSGSGSGTDFTLKISRVEAEDLGVYYCFQGSHVPLTFGGGTKLELK
B3: F846C.1B2: anti-Gal3 antibody (antibody, V domains shown)
VH: QIQLVQSGPELKKPGETVKISCKASGYTFTNYGMNWVKQAPGKGLKWMGWINTYTGEPSYADDFKGRFAFSLETSASTAYLQINNLKNEDMATYFCARWGGYAGDYYAMDFWGQGTSVTVSS
VL: NIWLTQSPSSLAVSAGEMVTMTCKSSQSVLYSSNQKNYLAWYQQKPGQSPKLLIYWASTRESGVPDRFTGSGSGTDFSLTISSVQAEDLAVYYCHQYLSSLTFGAGTKLELK
B4: F846C.2H3: anti-Gal3 antibody (antibody, V domains shown)
VH: B3 VH with A103D, F111Y
VL: B3 VL with W3M, L4M, M18K, T22S, S78T, A86P
B5: F847C.10B9: anti-Gal3 antibody (antibody, V domains shown)
VH: QIQLVQSGPEVKKPGETVKISCKASGYIFTNYGMNWVKQAPGKGLKWMGWINTYTGEPTYTDDFKGRFAFSLETSASTAYLQINNLKNEDTATYFCAKFGNYVGAMDYWGQGTSVTVSS
VL: DIRMTQSPSSLSASLGDTITITCHASQNINVWLSWYQQKPGNIPKLLIYKASNLHTGVPSRFSGSGSGTGFTLTISSLQPEDIATYYCQQGQSYPYTFGGGTKLELK
B6: F847C.12F12: anti-Gal3 antibody (antibody, V domains shown)
VH: B5 VH with V11L, I28T, T61V, Q82R
VL: B5 VL with R3Q, M4V, T5I
B7: F847C.26F5: anti-Gal3 antibody (antibody, V domains shown)
VH: B5 VH
VL: B5 VL with D1E, R3K, T5N
B8: 13A12.2E5: anti-Gal3 monoclonal antibody (antibody, V domains shown)
VH: QIQLVQSGPELKKPGETVKISCKTSGYKFKTYVMSWVKQAPGKALKWMGWINTYSGVPTYADDFKGRFAFSLETSASTAYLEIINLKNEDTATYFCARDGNYGDPMDYWGQGTSVTVSS
VL: DVVMTQTPLTLSVAIGQPASISCKSSQSLLYTNGKTYLNWLLQRPGQSPKRLIYLLSKLDSGVPDRFSASGSGTDFTLKISRVEAEDLGVYYCLQSTHFPLTFGAGTKLEMK
B9: 20D11.2C6: anti-Gal3 monoclonal antibody (antibody, V domains shown)
VH: EVQLQQSGPELVKPGASVKISCKASGYTFTDFYINWVKQSHGKSLEWIGDINPKNGGINYNPKFKIKATLTVDKSSSTSYMDLRGLTSEDSAVYYCTSGYGFPYWGQGTLVTVSA
VL: DIQMNQSPSSLSASLGDTITITCRASQNIYIWLSWYQQKPGNIPKLLIYKASNLHTGVPSRFSGSGSGTDFTLTISTLQPEDIATYFCLQGQSYPLTFGAGTKLEMK
B10: F846C.1H5: anti-Gal3 antibody (antibody, V domains shown)
VH: EVQLLESGGGLVKPGGSLKLSCAASGFTFSSYAMSWVRQTPEKRLEWVASISSGGDTYYPDSVKGRFTISRDNARNILYLQMSSLRSEDTAMYYCASYGNSLFDYWGQGTTLTVSS
VL: DVVMTQTPLSLPVSLGDQASISCRSSQSLVHNSGNTYLHWYLQRPGQSPNLLIYKVSNRFSGVPDRFSGSGSGTDFTLKISRVAAEDLGVYFCSQSTHVPPTFGGGTKLEIK
B11: TB006: anti-Gal3 antibody (antibody, V domains shown)
VH: QVQLVQSGAEVKKPGASVKVSCKASGYSFTNYYMHWVRQAPGQRLEWMGWIYPGSGNTNYNEKFQGRVTITADTSASTAYMELSSLRSEDTAVYYCSTAPGGFDVWGQGTTVTVSS
VL: DIVMTQTPLSLSVTPGQPASISCKSSKSLLHSDGITYLYWYLQKPGQSPQLLIYRMSNLASGVPDRFSGSGSGTDFTLKISRVEAEDVGVYYCAQMLEFPLTFGQGTKLEIK

What was measured:
[1] = molecular target: T1, Gal3 peptides (SEQ ID NOs: 3-26) (Homo sapiens, UniProt P17931); experiment: Gal3 peptide library binding ELISA (epitope mapping); conditions: for binding to Gal3 Peptide 1: Peptide 1 (SEQ ID NO: 3), amino acids 1-20 of Gal3; for binding to Gal3 Peptide 7: Peptide 7 (SEQ ID NO: 9), amino acids 61-80 of Gal3; for binding to Gal3 Peptide 4: Peptide 4 (SEQ ID NO: 6), amino acids 31-50 of Gal3; for binding to Gal3 Peptide 6: Peptide 6 (SEQ ID NO: 8)
T1 construct: a library of 24 amino acid peptides representing portions of Gal3; purchased LifeTein custom order
Procedure: To identify the epitopes to which Gal3 antibodies with and without Gal3-INSR blocking activity bound, a library of 24 amino acid peptides representing portions of Gal3, depicted in FIG. 27, was produced and the ability of each peptide to bind Gal3 antibodies was evaluated by ELISA. At least 2 μg/ml of hGal3 peptide in 50 μl of PBS or 0.1 μg/ml of full-length human Gal3 protein (GenScript) and human Galectin-3 protein (Acro Biosystems, GA3-H5129) were diluted in PBS (Corning, 21-030-CM) to concentrations of at least 2 μg/ml or 0.1 μg/ml, respectively, and added to the wells of a 96-well ELISA plate (Thermo Fisher, 44-2404-21). After incubating the plate at 4° C. overnight, the plate was washed three times with PBST (PBS with 0.05% Tween 20 [VWR, 0777]). The plate was then blocked for an hour with 2% BSA (EMD Millipore, 126609) in PBST at room temperature with gentle rocking. Thereafter, the 2% BSA in PBST was discarded and human Galectin-3 hybridoma supernatants or antibodies were diluted in 2% BSA in PBST to concentrations of at least 0.1 μg/ml and added to the wells. The plate was incubated for an hour at room temperature with gentle rocking and then washed three times with PBST. Afterwards, Goat Anti-Mouse IgG-HRP (Jackson ImmunoResearch, 115-036-1461) or Goat Anti-Rat IgG HRP (Abcam, ab205720) diluted in 2% BSA in PBST (1:4000) were added to the wells. The plate was incubated for 30 minutes to 1 hour at room temperature with gentle rocking and then washed three times with PBST. TMB substrate (Thermo Scientific, 34029) was then added to each well. The reaction was stopped with 1M HCl (JT Baker, 5620-02) and read using a plate reader (Molecular Devices) at absorbance of 450 nm.
Human Gal3 peptides (LifeTein, custom order) and human Gal3 proteins (R&D Systems, 8259-GA; TrueBinding, QCB200349) were diluted in PBS (Corning, 21-030-CM) to concentrations of at least 100 μg/mL (peptides) or 1 μg/mL (proteins), and added to the wells of several 96-well ELISA plates (Thermo Fisher, 44-2404-21). After incubating the plates at 4° C. overnight, the plates were washed three times with PBST (PBS with 0.05% Tween 20 [VWR, 0777]). The plates were then blocked for an hour with 2% BSA (EMD Millipore, 126609) in PBST at room temperature with gentle rocking. Thereafter, the 2% BSA in PBST was discarded and Gal3-binding antibodies (reformatted hIgG4 [S228P]) were diluted in 2% BSA in PBST to concentrations of 5 μg/mL and added to the wells. The plates were incubated for an hour at room temperature with gentle rocking and then washed three times with PBST. Afterwards, Peroxidase AffiniPure F(ab′)2 Fragment Goat Anti-Human IgG (H+L) polyclonal antibody (Jackson ImmunoResearch, 109-036-003), was diluted in 2% BSA in PBST (1:4000) and added to the wells. The plates were incubated for 1 hour at room temperature with gentle rocking and then washed three times with PBST. TMB substrate (Thermo Scientific, 34029) was then added to each well. The reaction was stopped with 1M HCl (JT Baker, 5620-02) and read using a plate reader (Molecular Devices) at absorbance of 450 nm.

human Gal3 = molecular target: T2, human Gal3 (Homo sapiens, UniProt P17931); experiment: Antibody binning assays (competition for binding to Gal3); conditions: binning per Examples 3 and 18
T2 construct: His; purchased AcroBio GA3-H5129
T2 sequence (P17931 whole entry): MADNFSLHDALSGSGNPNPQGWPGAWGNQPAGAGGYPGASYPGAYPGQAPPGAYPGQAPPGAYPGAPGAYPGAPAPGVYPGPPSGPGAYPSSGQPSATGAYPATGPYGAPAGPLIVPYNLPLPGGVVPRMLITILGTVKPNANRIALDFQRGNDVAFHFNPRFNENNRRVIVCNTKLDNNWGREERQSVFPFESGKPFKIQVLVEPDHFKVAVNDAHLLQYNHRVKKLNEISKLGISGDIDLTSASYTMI
Procedure: To determine whether Gal3-binding antibodies with Gal3-INSR blocking activity bind to the same or overlapping regions of the Gal3 molecule, antibody binning assays were performed to assess the ability of antibodies to simultaneously bind Gal3. Amine-reactive probes were loaded onto a Gator biosensor (Probe Life, Palo Alto, Calif.), equilibrated in dH20 for 60 seconds, dipped into 100 μl EDC 0.2M/NHS 0.05M activation buffer for 30 seconds, then dipped into a solution of […] human Gal3-His in 10 mM NaOAc buffer, pH 5 until binding was saturated, and quenched in 1 M ethanolamine pH 8.5 for 300 seconds. Following Gal3-His loading, tips were dipped in 20 μg/mL saturating antibody, then successively dipped into 5 μg/mL competing antibody.
The epitope binning assay was done in a sandwich format on the high-throughput SPR-based Carterra LSA unit (CarterraBio, Salt Lake City, Utah). First, the purified antibodies were diluted to 10 μg/ml concentration in 10 mM NaOAc (pH 5.0) and then were covalently coupled via amine group to HC200M chip activated by EDC and S-NHS to immobilize antibodies to different positions of a 384-spot array. One hundred thirty-eight binning cycles were run on the array of immobilized antibodies. In each cycle, first, human Gal3 (AcroBio GA3-H5129) was injected over the entire array to bind to different antibodies (primary antibody), followed by one antibody (secondary antibody) selected among the panel of 150 anti-GAL3 antibodies tested. At the end of each cycle, the array was regenerated by 10 mM Glycine (pH 2.0) to remove bound antigen and secondary antibody from the array. The data analysis was done using the Epitope software by CarterraBio.

binding to Gal3 Peptide 1 [1]	binding to Gal3 Peptide 7 [1]	binding to Gal3 Peptide 6 ([1]; amino acids 51-70 of Gal3)	also measured	Molecule
bind and bound	bind and bound		epitope bin (competitive binding to Gal3) (human Gal3): bin 3	B1
	bind and bound		binding to Gal3 Peptide 2 ([1]; Peptide 2 (SEQ ID NO: 4)): bind; binding to Gal3 Peptide 3 ([1]; Peptide 3 (SEQ ID NO: 5)): bind; binding to Gal3 Peptide 4 [1]: bind; epitope bin (competitive binding to Gal3) (human Gal3): bin 8	B2
	bind and bound	bind and bound	binding to Gal3 Peptide 5 ([1]; Peptide 5 (SEQ ID NO: 7)): bind	B3
		bind and bound		B4
bind and bound	bind and bound			B5
bind and bound	bind and bound			B6
bind and bound	bind and bound			B7
		bind and bound	binding to Gal3 Peptide 4 [1]: bind	B8
bind and bound	bind and bound	bound	epitope bin (competitive binding to Gal3) (human Gal3): bins 5	B9
bind and bound				B10
			binding to Gal3 Peptide 6 ([1]; amino acids 51-70 of Gal3, listed as IMT006 (TB006)): bind and bound	B11
